{"source": "paper PMC3615049", "about": "(Biochemistry, 2013)", "key": {"[1]": {"substrate": "COC1=CC(=O)C(C)=CC1=O", "test": "purified protein", "format": "biochemical, Homo sapiens", "conditions": "200 μM NADH, 5 μM enzyme, 20 mM Tris pH 7.0 in H2O, 25 °C"}, "[2]": {"substrate": "COC1=CC(=O)C(C)=C(C/C=C(\\C)CCC=C(C)C)C1=O", "test": "purified protein", "format": "biochemical, Homo sapiens", "conditions": "200 μM NADH, 5 μM enzyme, 25 °C, pH 7.0"}, "[3]": {"target": "the molecule itself", "test": "SEC"}}, "data": [{"protein": "GB1-hCLK-1 (human Clock-1 with an N-terminal immunoglobulin binding domain of protein G) (enzyme, UniProt Q99807 39-217, looked up) MTLDNISRAAVDRIIRVDHAGEYGANRIYAGQMAVLGRTSVGPVIQKMWDQEKDHLKKFNELMVTFRVRPTVLMPLWNVLGFALGAGTALLGKEGAMACTVAVEESIAHHYNNQIRTLMEEDPEKYEELLQLIKKFRDEELEHHDIGLDHDAELAPAYAVLKSIIQAGCRVAIYLSERL", "values": [{"measurement": "Km", "setting": "[1]", "value": 68.1, "unit": "µM"}, {"measurement": "Vmax", "setting": "[1]", "value": 12.8, "unit": "µM/min"}, {"measurement": "kcat/Km", "setting": "[1]", "value": 627, "unit": "M⁻¹ s⁻¹"}, {"measurement": "Km", "setting": "[2]", "value": 33.8, "unit": "µM"}, {"measurement": "Vmax", "setting": "[2]", "value": 39.2, "unit": "µM/min"}, {"measurement": "kcat/Km", "setting": "[2]", "value": 3870, "unit": "M⁻¹ s⁻¹"}, {"measurement": "stoichiometry N", "setting": "[3]", "value": 2}]}]}
